Assay results reported in patent US10975142B2, “Endotrophin neutralization and use thereof” (THE BOARD OF REGENTS OF THE UNIVERSITY OF TEXAS SYSTEM, priority 2013, dated 2021).

Columns and labels:
Format in all cases: in vivo
[1] = system: 4T1; test: 4T1 xenograft in nude mice, cisplatin with 10B6 or IgG; settings: 28-days; cisplatin 1 mg/kg every 5 days, 10B6 100 μg/mouse once a week
Method: FIGS. 22A-22E. Neutralizing endotrophin activities with monoclonal antibodies sensitizes tumors to cisplatin treatment. FIG. 22A. Pieces of tumors from PyMT mice were implanted into wild-type hosts. Tumor-bearing mice were given cisplatin (1 mg/kg, ip., every 5 days) or PBS, combined with either TZD (20 mg/kg) or anti-endotrophin monoclonal antibodies (100 μg/mouse, once a week) for tumor progression. Tumor volumes were determined by caliper measurements. Data represent mean±SD (n=5/group). *p<0.05, **p<0.01, ***p<0.001 vs. Cisplatin by 2-way ANOVA. FIGS. 22B-22D. 4T1 (0.5×10^6/mouse) cells were xenografted in nude mice and monitored tumor growth (FIG. 22B) and metastasis (FIG. 22C). […] Tumor volumes were determined by caliper measurements. […] Metastatic burden was determined by measuring metastatic lesion area in lung tissues with H&E stains. Quantified data represent mean±SD (n=5/group). **p=0.0007 and *p=0.0209 vs. CIS/10B6 by unpaired student t-test. mRNA levels for EMT markers such as vimentin, snail, slug, twist1, twist2 and S100S4 were determined by RT-qPCR (FIG. 22D). […]
As a last step, therapeutic potential of a previously described endotrophin neutralizing antibody (clone 10B6) on cisplatin sensitivity was determined. […] Tumor regression was monitored for 2-months post implantation. […]

[2] = system: PyMT mice; test: 10B6 treatment of PyMT mice, tumor growth; settings: 10B6 200 μg/mouse i.p. twice weekly, 9 to 13 weeks of age, vs isotype control IgG
Method: FIGS. 8A-8I: 10B6 blocks ETP-mediated stromal expansion in vivo. (FIG. 8A) 10B6 (200 μg/mouse) was i.p. injected twice weekly into PyMT mice from 9 to 13 weeks of age. Tumor growth (mean±SEM; n=4-6 per group) was determined by weekly caliper measurements. *P<0.05, **P<0.01, ***P<0.001 vs. IgG control, 2-way ANOVA. (FIG. 8B) Primary mammary epithelial cancer cells were isolated from 12-week-old FP635/PyMT and FP635/PyMT/ETP mice and implanted into WT recipients with the same volume of Matrigel. For the 10B6 group, 10B6 was added in a Matrigel plug (10 μg/plug) admixed with ETP^+-cancer cells (i.e., ETP^+/10B6). A representative whole-body image was acquired 25 days after implantation using IVIS fluorescence scanner. Artificial color indicates fluorescence signal intensity accounts for tumor volume (AU). Quantitative results are represented as mean±SEM (n=3 per group). *P<0.05, unpaired t test. […] Quantified results in FIGS. 8D-8I are mean±SEM (multiple images, n=3 per group). *P<0.05, **P<0.01, unpaired t test. […]
Tumor onset was monitored twice weekly by palpation. Tumor sizes were measured with a digital caliper twice weekly and the volumes were calculated as […]. […] Metastatic tumor growth was determined by histological analysis with H&E stained lung tissues.

[3] = system: diet induced obese (DIO) mice; test: diet induced obese mice, hyperinsulinemic-euglycemic clamp; settings: 10B6 100 μg/mouse vs IgG
Method: FIGS. 24A-24D: Endotrophin neutralization improves the metabolic phenotype. FIG. 24A. Two cohorts of mice (n=8) were exposed to high fat diet for 45 days after weaning. At the indicated time points (arrowheads), mice were treated with anti-endotrophin monoclonal antibodies (100 μg/mouse) or equivalent amounts of non-immune antibody. Body weights were monitored. FIG. 24B. Glucose infusion rate and FIG. 24C. Suppression of hepatic glucose efflux was measured in a hyperinsulinemic euglycemic clamp. FIG. 24D. Table of parameters measured prior and during the clamp. Significant differences as indicated by unpaired student t-test.
To evaluate the therapeutic potential of endotrophin neutralizing monoclonal antibodies on metabolic perspectives, diet induced obese (DIO) mice were chronically treated with either IgG control or 10B6 (rat anti-mouse endotrophin monoclonal antibody) via intraperitoneal injection at 2 weeks after high-fat diet (HFD) challenge and maintained them on a HFD with antibody treatment for another 4 weeks. […] Strikingly, 10B6 treated DIO mice improved whole-body insulin sensitivity, as determined by the amount of glucose required to maintain euglycemia (FIG. 24B) and by the amount of suppression of hepatic glucose efflux (FIGS. 24C and D).

## N.N.[Cl][Pt][Cl] [cisplatin, cis-diammine-dichloro-platinum]
[1]
  primary tumor growth of 4T1: barely inhibited

B1: 10B6: rat anti-mouse endotrophin monoclonal antibody; light chain variable SEQ ID NO: 2, heavy chain variable SEQ ID NO: 4 (antibody, V domains shown)
VH: QVQLQQSGPELAKPGSSVKISCKASGYTFTSYEMHWIKQRPGQGLEWIGYIYPESGSTGYNEKFKGKATLTVDKSSPTAYMQLSSLTPDNSAVYFCTRGLRVLGYVMDVWGHGTSVTVSS
VL: DVQLTQSPSFLSASVGDRVTINCKASQNINKYLNWYQQKLGEAPKRLIYNTNNLQTGIPSRFSGSASGTDYTLTISSLHPEDFATYFCLQHSSLYTFGAGTKLELK
[2]
  tumor growth: significantly attenuated
[1]
  primary tumor growth of 4T1: barely inhibited
[3]
  whole-body insulin sensitivity (glucose required to maintain euglycemia, suppression of hepatic glucose efflux): improved
